Test results: article doi:10.1101/2025.10.13.682107, “Oxidative stress sensing by the translation elongation machinery promotes production of detoxifying selenoproteins” (bioRxiv, 2025)

B1: EEF1D, endogenous (natural protein, human (endogenous in HEK293T), UniProt P29692 1-281, looked up)
chain: MATNFLAHEKIWFDKFKYDDAERRFYEQMNGPVAGASRQENGASVILRDIARARENIQKSLAGSSGPGASSGTSGDHGELVVRIASLEVENQSLRGVVQELQQAISKLEARLNVLEKSSPGHRATAPQTQHVSPMRQVEPPAKKPATPAEDDEDDDIDLFGSDNEEEDKEAAQLREERLRQYAEKKAKKPALVAKSSILLDVKPWDDETDMAQLEACVRSIQLDGLVWGASKLVPVGYGIRKLQIQCVVEDDKVGTDLLEEEITKFEEHVQSVDIAAFNKI
notes: EEF1D (guanine nucleotide exchange factor subunit of EEF1H), human, endogenous in HEK293T; source: endogenous, HEK293T lysate
B2: valine tRNA synthase (VARS), endogenous (enzyme, human (endogenous in HEK293T), UniProt P26640 1-1264, looked up)
chain: MSTLYVSPHPDAFPSLRALIAARYGEAGEGPGWGGAHPRICLQPPPTSRTPFPPPRLPALEQGPGGLWVWGATAVAQLLWPAGLGGPGGSRAAVLVQQWVSYADTELIPAACGATLPALGLRSSAQDPQAVLGALGRALSPLEEWLRLHTYLAGEAPTLADLAAVTALLLPFRYVLDPPARRIWNNVTRWFVTCVRQPEFRAVLGEVVLYSGARPLSHQPGPEAPALPKTAAQLKKEAKKREKLEKFQQKQKIQQQQPPPGEKKPKPEKREKRDPGVITYDLPTPPGEKKDVSGPMPDSYSPRYVEAAWYPWWEQQGFFKPEYGRPNVSAANPRGVFMMCIPPPNVTGSLHLGHALTNAIQDSLTRWHRMRGETTLWNPGCDHAGIATQVVVEKKLWREQGLSRHQLGREAFLQEVWKWKEEKGDRIYHQLKKLGSSLDWDRACFTMDPKLSAAVTEAFVRLHEEGIIYRSTRLVNWSCTLNSAISDIEVDKKELTGRTLLSVPGYKEKVEFGVLVSFAYKVQGSDSDEEVVVATTRIETMLGDVAVAVHPKDTRYQHLKGKNVIHPFLSRSLPIVFDEFVDMDFGTGAVKITPAHDQNDYEVGQRHGLEAISIMDSRGALINVPPPFLGLPRFEARKAVLVALKERGLFRGIEDNPMVVPLCNRSKDVVEPLLRPQWYVRCGEMAQAASAAVTRGDLRILPEAHQRTWHAWMDNIREWCISRQLWWGHRIPAYFVTVSDPAVPPGEDPDGRYWVSGRNEAEAREKAAKEFGVSPDKISLQQDEDVLDTWFSSGLFPLSILGWPNQSEDLSVFYPGTLLETGHDILFFWVARMVMLGLKLTGRLPFREVYLHAIVRDAHGRKMSKSLGNVIDPLDVIYGISLQGLHNQLLNSNLDPSEVEKAKEGQKADFPAGIPECGTDALRFGLCAYMSQGRDINLDVNRILGYRHFCNKLWNATKFALRGLGKGFVPSPTSQPGGHESLVDRWIRSRLTEAVRLSNQGFQAYDFPAVTTAQYSFWLYELCDVYLECLKPVLNGVDQVAAECARQTLYTCLDVGLRLLSPFMPFVTEELFQRLPRRMPQAPPSLCVTPYPEPSECSWKDPEAEAALELALSITRAVRSLRADYNLTRIRPDCFLEVADEATGALASAVSGYVQALASAGVVAVLALGAPAPQGCAVALASDRCSIHLQLQGLVDPARELGKLQAKRVEAQRQAQRLRERRAASGYPVKVPLEVQEADEAKLQQTEAELRKVDEAIALFQKML
notes: valine tRNA synthase (VARS), human, endogenous in HEK293T; source: endogenous, HEK293T lysate
B3: EEF1B, endogenous (natural protein, human (endogenous in HEK293T), UniProt P24534 1-225, looked up)
chain: MGFGDLKSPAGLQVLNDYLADKSYIEGYVPSQADVAVFEAVSSPPPADLCHALRWYNHIKSYEKEKASLPGVKKALGKYGPADVEDTTGSGATDSKDDDDIDLFGSDDEEESEEAKRLREERLAQYESKKAKKPALVAKSSILLDVKPWDDETDMAKLEECVRSIQADGLVWGSSKLVPVGYGIKKLQIQCVVEDDKVGTDMLEEQITAFEDYVQSMDVAAFNKI
notes: EEF1B (guanine nucleotide exchange factor subunit of EEF1H), human, endogenous in HEK293T; source: endogenous, HEK293T lysate

Columns and labels:
[1] = target: endogenously Strep-tagged EEF1G (human (endogenous in HEK293T)) (UniProt P26641); experiment: mass photometry; EEF1H complex recovered by affinity purification of endogenous strep-tagged EEF1G from HEK293T lysates; stoichiometry predicted from molecular weight of components and Coomassie staining; complex formed in cells and co-purified
Chain of endogenously Strep-tagged EEF1G (human (endogenous in HEK293T)) (P26641 whole entry): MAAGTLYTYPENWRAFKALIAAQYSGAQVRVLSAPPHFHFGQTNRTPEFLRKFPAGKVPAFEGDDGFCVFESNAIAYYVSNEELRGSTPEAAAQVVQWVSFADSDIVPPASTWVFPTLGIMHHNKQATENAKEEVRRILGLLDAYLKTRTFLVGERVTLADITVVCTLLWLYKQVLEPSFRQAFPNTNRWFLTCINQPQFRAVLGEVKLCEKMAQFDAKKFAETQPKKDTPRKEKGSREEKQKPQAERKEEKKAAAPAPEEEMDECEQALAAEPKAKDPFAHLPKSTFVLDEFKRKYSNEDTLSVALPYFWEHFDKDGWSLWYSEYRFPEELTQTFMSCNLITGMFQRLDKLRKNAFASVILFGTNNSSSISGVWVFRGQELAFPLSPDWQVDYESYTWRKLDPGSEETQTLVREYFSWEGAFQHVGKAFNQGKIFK

[2] = target: EEF1G (eukaryotic elongation factor 1 subunit gamma), endogenous (human (endogenous in HEK293T)) (UniProt P26641); experiment: mass photometry; EEF1S complex recovered by glutathione-Sepharose from HEK293T lysate and run on SEC (Superdex 200); stoichiometry from the mass (~270 kDa) and Coomassie staining; complex formed in cells and co-purified
Chain of EEF1G (eukaryotic elongation factor 1 subunit gamma), endogenous (human (endogenous in HEK293T)) (P26641 whole entry): as above

[3] = target: T1, endogenously Strep-tagged EEF1G (human (endogenous in HEK293T), UniProt P26641 1-437); experiment: mass photometry; EEF1H complex recovered by affinity purification of endogenous strep-tagged EEF1G from HEK293T lysates; stoichiometry predicted from molecular weight of components and Coomassie staining; complex formed in cells and co-purified; settings: partners not purified
T1 construct: EEF1G, human, endogenous locus of HEK293T edited to carry an internal Twin-Strep tag in the unstructured region between the GST and C-terminal domains; also called strep-EEF1G; source: endogenous locus tagged by CRISPR-Cas9 knock-in, HEK293T; not shown: Twin-Strep, internal (in the unstructured region between the GST and C-terminal domains), kept
T1 sequence (P26641 whole entry, the tested form may be a part): as the sequence (P26641 whole entry) above

[4] = target: T2, EEF1G (eukaryotic elongation factor 1 subunit gamma), endogenous (human (endogenous in HEK293T), UniProt P26641 1-437); experiment: mass photometry; EEF1S complex recovered by glutathione-Sepharose from HEK293T lysate and run on SEC (Superdex 200); stoichiometry from the mass (~270 kDa) and Coomassie staining; complex formed in cells and co-purified; settings: partners not purified
T2 construct: EEF1G, human, endogenous untagged protein in HEK293T lysate, recovered on glutathione-Sepharose; source: endogenous, HEK293T lysate
T2 sequence (P26641 whole entry): as above

| Molecule | copies in the EEF1H complex (with six copies of EEF1G) [1] | stoichiometry N [2] | copies in the EEF1H complex (with six copies of EEF1G) [3] | stoichiometry N [4] |
| --- | --- | --- | --- | --- |
| EEF1A, endogenous (from UniProt P68104 1-462) (natural protein) | 6 copies | 1 | – | – |
| B1 | – | – | ~4 copies | – |
| B2 | – | – | ~2 copies | – |
| B3 | – | – | ~4 copies | ~1 |
